Measured values reported in patent publication US8377701B2, “Specific ligands to sortilin” (H. Lundbeck A/S, priority 2008, dated 2013).
Positions count from the first letter of the chain named. Where no end group is shown, it is not given here.

Key:
[1] = target: T1, S316E mutant sSortilin (Homo sapiens, UniProt Q99523, S316E); assay: Surface plasmon resonance: ligand binding to purified sSortilin S316E mutant; details: compared with wtSortilin
T1 construct: His6 (C); made in house; host or cells: CHO cells
T1 sequence (Q99523 78-755 S316E): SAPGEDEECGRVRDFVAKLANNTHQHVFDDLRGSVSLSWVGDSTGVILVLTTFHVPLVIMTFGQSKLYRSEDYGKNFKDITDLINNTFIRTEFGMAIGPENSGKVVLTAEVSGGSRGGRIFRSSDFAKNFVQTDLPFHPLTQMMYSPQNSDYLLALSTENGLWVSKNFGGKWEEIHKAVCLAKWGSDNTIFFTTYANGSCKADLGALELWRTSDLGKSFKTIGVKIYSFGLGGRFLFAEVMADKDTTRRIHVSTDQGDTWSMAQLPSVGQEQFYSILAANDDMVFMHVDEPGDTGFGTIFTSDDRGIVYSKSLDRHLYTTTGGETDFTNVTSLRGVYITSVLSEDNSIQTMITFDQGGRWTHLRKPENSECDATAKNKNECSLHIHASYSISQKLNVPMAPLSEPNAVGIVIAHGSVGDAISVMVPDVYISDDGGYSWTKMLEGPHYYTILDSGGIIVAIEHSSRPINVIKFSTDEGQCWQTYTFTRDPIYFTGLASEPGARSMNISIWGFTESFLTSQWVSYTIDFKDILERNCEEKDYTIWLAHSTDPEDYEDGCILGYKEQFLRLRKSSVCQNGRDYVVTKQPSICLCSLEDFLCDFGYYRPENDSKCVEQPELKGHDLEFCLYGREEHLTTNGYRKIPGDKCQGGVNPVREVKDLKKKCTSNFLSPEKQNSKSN
Procedure: (§1) Surface plasmon resonance (SPR) measurements were performed on a BIAcore 2000 instrument (Biacore Sweden) equipped with CM5 sensor chips maintained at 20° C. A continuous flow of HBS buffer (10 mM HEPES pH 7.4, 3.4 mM EDTA, 150 mM NaCl, 0.005% surfactant P20) passing over the sensor surface was maintained at 5 μl/min. […] A sortilin solution (320 μl, 5 μg/ml in 10 mM sodium acetate pH 4.0) was then injected over flow cells 1 and 2 at a flow rate of 15 μl/min. Remaining binding sites in all three flow cells were blocked by injection (5 μl/min) of 70 μl of 1 M ethanolamine pH 8.5. […] Screening of the samples was performed by injecting aliquots of 50 μl, at concentrations of 0.1-8 μM, through all flow cells with a flow rate of 5 μl/min. Unless otherwise stated, the samples were dissolved in 10 mM HEPES pH 7.4, 150 mM NaCl, 1.5 mM CaCl2, 1 mM EGTA, 0.005% surfactant P20. Sample buffer was also used as running buffer. The BIAcore response is expressed in relative response units (RU), i.e. the difference in response between the immobilized protein flow cell and the corresponding control flow cell (activated and blocked but without protein). Regeneration of the sensor chip after each cycle of analysis was performed by injecting 20 μl of 10 mM glycine/HCl pH 4.0, 500 mM NaCl, 20 mM EDTA and 0.005% surfactant P20. For calciumfree conditions, HBS containing 20 mM EDTA was used as sample as well as running buffer.

[2] = target: T2, sSortilin (Homo sapiens, UniProt Q99523); assay: Surface plasmon resonance affinity of NGFpro and icosapeptides for immobilized sSortilin; format: binding; details: BIAcore 3000, 20° C., read-out: dissociation constant (Kd)
T2 construct: Soluble Sortilin (sSortilin); His6 (C); made in house; host or cells: CHO-K1
T2 sequence (Q99523 78-755 limits assumed): T1 sequence (Q99523 78-755 S316E) with E239S
Procedure: All measurements were performed on a BIAcore 3000 instrument (Biacore Sweden) maintained at 20° C. A continuous flow of buffer F (10 mM HEPES pH=7.4, 150 mM (NH4)2SO4, 1.5 mM CaCl2, 1.5 mM EGTA and 0.005% Tween-20) was passed over the CM5 chip sensor surface at 5 μl/min. The affinity of NGFpro and the peptides for immobilized sSortilin were determined. The dissociation constant (Kd) for NGFpro was ˜10 nM and for peptide-4 (SEQ ID NO:51) ˜5 μM. The ability of the peptides to compete with NGFpro for binding to sSortilin was tested as well.

[3] = target: T2, sSortilin; assay: Surface plasmon resonance: ligand binding to immobilized sSortilin in absence or presence of Neurotensin derived peptides; details: for inhibition of binding of Sort-pro (GST-Sort-pro) to sSortilin: FIG. 3A+B
Procedure: as §1

## Sort-pro: Sortilin's own propeptide, residues 34-77 of SEQ ID NO:1, fused to GST (QDRLDAPPPPAAPLPRWSGPIGVSWGLRAAAAGGAFPRGGRWRR; also: fused to GST)
[1]
  binding to S316E mutant: no binding

## ITVDPRLFKKRRLRSPRVLF-NH2 [peptide-4]
[2]
  Kd: ~5 µM

## Tyr-Ile-Leu [YIL]
[3]
  inhibition of binding of Sort-pro (GST-Sort-pro) to sSortilin: full inhibition
[3]; FIG. 3C, not as efficiently as full length NT
  inhibition of binding of the prodomain of NGF to sSortilin: hampers binding
[3]; FIG. 3D, not as efficiently as full length NT
  inhibition of binding of RAP to sSortilin: hampers binding
[3]; summary statement
  affinity for Sortilin: high affinity

## Arg8-Arg-Pro-Tyr-Ile-Leu13-NH2 [reference compound]
[3]
  inhibition of binding of Sort-pro (GST-Sort-pro) to sSortilin: fails to inhibit

## BDNF: Mature BDNF, SEQ ID NO. 7 residues 128 to 246, purchased from R&D Systems
[1]
  binding to S316E mutant: affinities similar to that of wtSortilin

B1: NGFpro: propeptide of Nerve Growth Factor, residues 19-121 of SEQ ID NO:6 (protein)
chain: EPHSESNVPAGHTIPQVHWTKLQHSLDTALRRARSAPAAAIAARVAGQTRNITVDPRLFKKRRLRSPRVLFSTQPPREAADTQDLDFEVGGAAPFNRTHRSKR
modifications: left off: a dimerising Fc or GST
[1]
  binding to S316E mutant: affinities similar to that of wtSortilin
